This note sets out measurements from the supplement of paper PMC7877785.

The series in a line: self-splicing fitness, log relative to wild type (ln ratio); higher = more splicing; Tetrahymena group I intron in knt gene, E. coli kanamycin selection, DiMSum; sequences stand for … in CUCUCU…GGAGGGAAAAGUUAUCAGGCAUGCACCUGGUAGCUAGUCUUUAAACCAAUAGAUUGCAUCGGUUUAAAAGGCAAGACCGUCAAAUUGCGGGAAAGGGGUCAACAGCCGUUCAGUACCAAGUCUCAGGGGAAACUUUGAGAUGGCCUUGCAAAGGGUAUGGUAAUAAGCUGACGGACAUGGUCCUAACCACGCAGCCAAGUCCUAAGUCAACAGAUCUUCUGUUGAUAUGGAUGCAGUUCACAGACUAAAUGUCGGUCGGGGAAGAUGUAUUCUUCUCAUAAGAUAUAGUCGGACCUCUCCUUAAUGGGAGCUAGCGGAUGAAGUGAUGCAACACUGGAGCCGCUGGGAACUAAUUUGUAUGCGAAAGUAUAUUGAUUAGUUUUGGAGUACUCGUGGUCG
The procedure, abridged: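 Pooled colonies went to amplicon sequencing on an Illumina HiSeq 2500 after six replicate transformations. The plates were LB agar with 100 μg/mL carbenicillin, 50 μM IPTG and 0.2% rhamnose, with or without 25 μg/mL kanamycin, incubated overnight at 37°C or 30°C. The E. coli BL21(DE3) library had all eight P1ex-region intron nucleotides randomised, the intron placed in the knt kanamycin-resistance gene on pET-22b(+). DiMSum fitness is the error-weighted combination of replicate fold changes, kanamycin against none, normalised to wild type.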

± gives the uncertainty stated by the source.

On to CCUUAGCAAUAUUACGGCGU, for which the “self-splicing fitness (ln)” value by setting is: (30 °C) -3.94 ± 0.33; (37 °C) -2.78 ± 0.32.
The like results for UCACAGCAAUAUUACGUAUG were, in that order, -0.949 ± 0.063 and -1.54 ± 0.099.
With CAGUAGCAAUAUUACGGAUC, the “self-splicing fitness (ln)” value is -3.64 ± 0.43 (30 °C) and -1.48 ± 0.27 (37 °C).
The like results for GGGCAGCAAUAUUACGCGCC were, in that order, -3.31 ± 0.18 and -2.82 ± 0.28.
The like results for UAGUAGCAAUAUUACGUUAG were, in that order, -1.52 ± 0.17 and -1.97 ± 0.21.
The like results for GCCAAGCAAUAUUACGUAAC were, in that order, -1.35 ± 0.087 and -0.157 ± 0.11.
On to ACCGAGCAAUAUUACGAAUU, for which the “self-splicing fitness (ln)” value runs as follows: (30 °C) -4.54 ± 0.39; (37 °C) -1.89 ± 0.21.
Take UUACAGCAAUAUUACGUUCA: the “self-splicing fitness (ln)” value is, setting by setting: (30 °C) -0.535 ± 0.11; (37 °C) 0.086 ± 0.12.
The like results for UCUCAGCAAUAUUACGUAAG were, in that order, -2.07 ± 0.12 and -1.17 ± 0.13.
The like results for GACCAGCAAUAUUACGCGUA were, in that order, -0.76 ± 0.059 and -0.392 ± 0.068.
The like results for CUAUAGCAAUAUUACGAAAG were, in that order, -1.84 ± 0.1 and -1.01 ± 0.12.
Turning to GAACAGCAAUAUUACGCACA, the “self-splicing fitness (ln)” value was -0.348 ± 0.082 (30 °C) and -0.338 ± 0.094 (37 °C).
The like results for AAUCAGCAAUAUUACGAAAA were, in that order, -1.45 ± 0.092 and -0.169 ± 0.1.
The like results for GUGAAGCAAUAUUACGAAGC were, in that order, -2.06 ± 0.08 and -1.06 ± 0.11.
The like results for UCGCAGCAAUAUUACGGAAA were, in that order, -2.71 ± 0.21 and -1.57 ± 0.17.
On to GGCAAGCAAUAUUACGUCCG, for which the “self-splicing fitness (ln)” value runs as follows: (30 °C) -3.73 ± 0.27; (37 °C) -1.61 ± 0.2.
The like results for CUUCAGCAAUAUUACGACUC were, in that order, -2.49 ± 0.21 and -1.46 ± 0.23.
The like results for UGAAAGCAAUAUUACGGGUG were, in that order, -0.621 ± 0.051 and -0.399 ± 0.069.
The like results for GCGAAGCAAUAUUACGGAUA were, in that order, -1.76 ± 0.12 and -0.933 ± 0.12.
With GCGCAGCAAUAUUACGGACG, the “self-splicing fitness (ln)” value is -2.17 ± 0.13 (30 °C) and -0.91 ± 0.15 (37 °C).
For the sequence AUAGAGCAAUAUUACGAUUG, the “self-splicing fitness (ln)” value is -3.46 ± 0.2 (30 °C) and -1.33 ± 0.15 (37 °C).
The like results for UUAUAGCAAUAUUACGGCAC were, in that order, -2.82 ± 0.36 and -2.51 ± 0.49.
The like results for AGGUAGCAAUAUUACGUUGA were, in that order, -2.893 ± 0.022 and -1.61 ± 0.035.
The like results for AUUCAGCAAUAUUACGAUCG were, in that order, -1.87 ± 0.1 and -1.5 ± 0.12.
For CAGGAGCAAUAUUACGCGGA, under “30 °C”, the “self-splicing fitness (ln)” value is -2.78 ± 0.25.
Regarding UAGUAGCAAUAUUACGAAUA, the “self-splicing fitness (ln)” value runs as follows: (30 °C) -1.33 ± 0.23; (37 °C) -0.977 ± 0.21.
For the sequence UGAAAGCAAUAUUACGCUUA, the “self-splicing fitness (ln)” value (30 °C) was -1.26 ± 0.17 and the “self-splicing fitness (ln)” value (37 °C) is -0.254 ± 0.17.
The like results for CUUAAGCAAUAUUACGUCCG were, in that order, -0.258 ± 0.11 and 0.679 ± 0.19.
For the sequence UGUAAGCAAUAUUACGACAC, where the note is “30 °C”, the “self-splicing fitness (ln)” value was -2.51 ± 0.41.
As to GAAAAGCAAUAUUACGGGCU, the “self-splicing fitness (ln)” value is, setting by setting: (30 °C) -1.37 ± 0.15; (37 °C) -1.72 ± 0.21.
The like results for GACGAGCAAUAUUACGCGGA were, in that order, -2.74 ± 0.23 and -2.87 ± 0.36.
The like results for GAACAGCAAUAUUACGUUAG were, in that order, -0.954 ± 0.047 and -0.969 ± 0.067.
Consider GGGUAGCAAUAUUACGUACA, for which the “self-splicing fitness (ln)” value (30 °C) is -1.34 ± 0.2 and the “self-splicing fitness (ln)” value (37 °C) was -0.763 ± 0.21.
The like results for GAAGAGCAAUAUUACGUUAG were, in that order, -2.19 ± 0.3 and -2.59 ± 0.31.
Consider AGGCAGCAAUAUUACGCCUU, for which the “self-splicing fitness (ln)” value (37 °C) is -3.04 ± 0.27.
As for UAUAAGCAAUAUUACGCCCA, the “self-splicing fitness (ln)” value runs as follows: (30 °C) -0.492 ± 0.13; (37 °C) -0.495 ± 0.2.
The like results for CCAUAGCAAUAUUACGAAAG were, in that order, -2.11 ± 0.12 and -0.18 ± 0.12.
As to AAUGAGCAAUAUUACGAUCA, the “self-splicing fitness (ln)” value (37 °C) is -2.46 ± 0.31.
Still for that read-out and setting: the figure for CCGAAGCAAUAUUACGAUUC is -2.07 ± 0.25.
